B1: Palmitoyltransferase ZDHHC5 (Homo sapiens), Q9C0B5 (parent)
chain: MPAESGKRFKPSKYVPVSAAAIFLVGATTLFFAFTCPGLSLYVSPAVPIYNAIMFLFVLANFSMATFMDPGIFPRAEEDEDKEDDFRAPLYKTVEIKGIQVRMKWCATCRFYRPPRCSHCSVCDNCVEEFDHHCPWVNNCIGRRNYRYFFLFLLSLTAHIMGVFGFGLLYVLYHIEELSGVRTAVTMAVMCVAGLFFIPVAGLTGFHVVLVARGRTTNEQVTGKFRGGVNPFTNGCCNNVSRVLCSSPAPRYLGRPKKEKTIVIRPPFLRPEVSDGQITVKIMDNGIQGELRRTKSKGSLEITESQSADAEPPPPPKPDLSRYTGLRTHLGLATNEDSSLLAKDSPPTPTMYKYRPGYSSSSTSAAMPHSSSAKLSRGDSLKEPTSIAESSRHPSYRSEPSLEPESFRSPTFGKSFHFDPLSSGSRSSSLKSAQGTGFELGQLQSIRSEGTTSTSYKSLANQTRNGSLSYDSLLTPSDSPDFESVQAGPEPDPPLGYTSPFLSARLAQQREAERHPRLVPTGPTHREPSPVRYDNLSRHIVASLQEREKLLRQSPPLPGREEEPGLGDSGIQSTPGSGHAPRTSSSSDDSKRSPLGKTPLGRPAVPRFGKPDGLRGRGVGSPEPGPTAPYLGRSMSYSSQKAQPGVSETEEVALQPLLTPKDEVQLKTTYSKSNGQPKSLGSASPGPGQPPLSSPTRGGVKKVSGVGGTTYEISV
partner: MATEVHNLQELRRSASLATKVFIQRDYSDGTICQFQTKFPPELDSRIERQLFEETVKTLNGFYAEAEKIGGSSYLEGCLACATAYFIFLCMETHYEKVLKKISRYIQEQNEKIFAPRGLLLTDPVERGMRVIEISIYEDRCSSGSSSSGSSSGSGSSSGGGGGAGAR
B2: Golgin subfamily A member 7B (Homo sapiens), Q2TAP0 (parent)
chain: B1 partner

Assays:
[1] = variants of: B1; conditions: with gog7b_human GOLGA7B, Q2TAP0
[2] = variants of: B1; conditions: with gog7b_human GOLGA7B, Q2TAP0; remark: listed apart in the source
[3] = variants of: B2; conditions: with zdhc5_human ZDHHC5, Q9C0B5
[4] = variants of: B2; conditions: with zdhc5_human ZDHHC5, Q9C0B5; remark: listed apart in the source

effect of a mutation on the interaction [1]	effect of a mutation on the interaction [2]	effect of a mutation on the interaction [3]	effect of a mutation on the interaction [4]	Variant
disrupting interaction strength				C236A;C237A;C245A
with no effect	decreasing interaction strength			C134S
		with no effect	disrupting interaction strength	C33A;C78A;C81A;C90A;C141A
